The supplement of paper PMC9112550, “Optimization of the antimicrobial peptide Bac7 by deep mutational scanning” (BMC Biology, 2022)

Tested on: Escherichia coli TOP10
Assay: shrunken log2 fold change of peptide-encoding DNA abundance (4.5 h post-induction vs induction); higher = less antimicrobial activity (less host growth inhibition)
Conditions: time post-induction: 4.5 h; library: site-saturation at positions 5, 18, 19, 20
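Also: peptides expressed intracellularly from a pBAD plasmid library in pooled LB shake-flask culture, induced with 0.3% L-arabinose, DNA abundance read by NGS, three biological replicates, DESeq2 with apeglm shrinkage.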

| Sequence | shrunken log2 fold change |
| --- | --- |
| RRIRMRPPRLPRPRPRPSPLPRP | 0.302 |
| RRIRMRPPRLPRPRPRPSPSPRP | 0.588 |
| RRIRMRPPRLPRPRPRPSQLPRP | -0.0454 |
| RRIRMRPPRLPRPRPRPSRCPRP | 0.274 |
| RRIRMRPPRLPRPRPRPSSQPRP | 0.212 |
| RRIRMRPPRLPRPRPRPSWDPRP | 0.709 |
| RRIRMRPPRLPRPRPRPSWWPRP | 0.169 |
| RRIRMRPPRLPRPRPRPSYEPRP | -0.293 |
| RRIRMRPPRLPRPRPRPSYWPRP | 0.0657 |
| RRIRMRPPRLPRPRPRPTASPRP | 1 |
| RRIRMRPPRLPRPRPRPTCSPRP | 0.134 |
| RRIRMRPPRLPRPRPRPTDHPRP | 0.309 |
| RRIRMRPPRLPRPRPRPTFAPRP | 0.573 |
| RRIRMRPPRLPRPRPRPTFIPRP | -0.027 |
| RRIRMRPPRLPRPRPRPTGQPRP | 0.636 |
| RRIRMRPPRLPRPRPRPTKEPRP | -0.0201 |
| RRIRMRPPRLPRPRPRPTLLPRP | 0.2 |
| RRIRMRPPRLPRPRPRPTMQPRP | 0.566 |
| RRIRMRPPRLPRPRPRPTPHPRP | 1.13 |
| RRIRMRPPRLPRPRPRPTPPPRP | 1.17 |
| RRIRMRPPRLPRPRPRPTQTPRP | 2.06 |
| RRIRMRPPRLPRPRPRPTQVPRP | 1.17 |
| RRIRMRPPRLPRPRPRPTSDPRP | 0.055 |
| RRIRMRPPRLPRPRPRPTTVPRP | 0.376 |
| RRIRMRPPRLPRPRPRPTVNPRP | 0.177 |

| Sequence | shrunken log2 fold change |
| --- | --- |
| RRIRMRPPRLPRPRPRPTWAPRP | 0.192 |
| RRIRMRPPRLPRPRPRPTWNPRP | 0.188 |
| RRIRMRPPRLPRPRPRPTYFPRP | -0.0299 |
| RRIRMRPPRLPRPRPRPVCKPRP | 0.222 |
| RRIRMRPPRLPRPRPRPVFLPRP | 0.0386 |
| RRIRMRPPRLPRPRPRPVGCPRP | 0.972 |
| RRIRMRPPRLPRPRPRPVGPPRP | 0.67 |
| RRIRMRPPRLPRPRPRPVICPRP | 0.00711 |
| RRIRMRPPRLPRPRPRPVLQPRP | 0.259 |
| RRIRMRPPRLPRPRPRPVMRPRP | 0.305 |
| RRIRMRPPRLPRPRPRPVNAPRP | 0.297 |
| RRIRMRPPRLPRPRPRPVNDPRP | -0.00185 |
| RRIRMRPPRLPRPRPRPVPTPRP | 0.5 |
| RRIRMRPPRLPRPRPRPVQLPRP | 0.0278 |
| RRIRMRPPRLPRPRPRPVQVPRP | -0.00884 |
| RRIRMRPPRLPRPRPRPVRSPRP | 1.23 |
| RRIRMRPPRLPRPRPRPVSNPRP | 0.499 |
| RRIRMRPPRLPRPRPRPVVCPRP | 0.125 |
| RRIRMRPPRLPRPRPRPVVHPRP | 0.0142 |
| RRIRMRPPRLPRPRPRPVWFPRP | 0.46 |
| RRIRMRPPRLPRPRPRPVWLPRP | 3.04 |
| RRIRMRPPRLPRPRPRPVWQPRP | 0.752 |
| RRIRMRPPRLPRPRPRPVWWPRP | -0.0717 |
| RRIRMRPPRLPRPRPRPVYIPRP | -0.0842 |
| RRIRMRPPRLPRPRPRPWAGPRP | 0.235 |

| Sequence | shrunken log2 fold change |
| --- | --- |
| RRIRMRPPRLPRPRPRPWAQPRP | 0.35 |
| RRIRMRPPRLPRPRPRPWDAPRP | 0.228 |
| RRIRMRPPRLPRPRPRPWDGPRP | 0.0785 |
| RRIRMRPPRLPRPRPRPWENPRP | -0.0294 |
| RRIRMRPPRLPRPRPRPWHRPRP | -0.0718 |
| RRIRMRPPRLPRPRPRPWIWPRP | 0.106 |
| RRIRMRPPRLPRPRPRPWKKPRP | 0.234 |
| RRIRMRPPRLPRPRPRPWNGPRP | -0.0377 |
| RRIRMRPPRLPRPRPRPWNTPRP | 0.000609 |
| RRIRMRPPRLPRPRPRPWRQPRP | 0.331 |
| RRIRMRPPRLPRPRPRPWSYPRP | 0.206 |
| RRIRMRPPRLPRPRPRPWVQPRP | 0.015 |
| RRIRMRPPRLPRPRPRPWWNPRP | 0.045 |
| RRIRMRPPRLPRPRPRPWYIPRP | -0.167 |
| RRIRMRPPRLPRPRPRPYCIPRP | 0.0786 |
| RRIRMRPPRLPRPRPRPYCVPRP | 0.117 |
| RRIRMRPPRLPRPRPRPYEDPRP | 0.477 |
| RRIRMRPPRLPRPRPRPYEKPRP | -0.111 |
| RRIRMRPPRLPRPRPRPYEVPRP | -0.00992 |
| RRIRMRPPRLPRPRPRPYFWPRP | -0.13 |
| RRIRMRPPRLPRPRPRPYGNPRP | 0.081 |
| RRIRMRPPRLPRPRPRPYIFPRP | -0.265 |
| RRIRMRPPRLPRPRPRPYIRPRP | -0.13 |
| RRIRMRPPRLPRPRPRPYLNPRP | 0.00358 |
| RRIRMRPPRLPRPRPRPYLQPRP | -0.0699 |

| Sequence | shrunken log2 fold change |
| --- | --- |
| RRIRMRPPRLPRPRPRPYMFPRP | -0.493 |
| RRIRMRPPRLPRPRPRPYMGPRP | -0.0411 |
| RRIRMRPPRLPRPRPRPYMWPRP | -0.38 |
| RRIRMRPPRLPRPRPRPYMYPRP | 0.0981 |
| RRIRMRPPRLPRPRPRPYNLPRP | 0.227 |
| RRIRMRPPRLPRPRPRPYVMPRP | -0.0161 |
| RRIRMRPPRLPRPRPRPYYHPRP | -0.459 |
| RRIRMRPPRLPRPRPRPYYTPRP | 0.0968 |
| RRIRNRPPRLPRPRPRPAANPRP | 0.487 |
| RRIRNRPPRLPRPRPRPAAYPRP | -0.0872 |
| RRIRNRPPRLPRPRPRPADCPRP | 0.131 |
| RRIRNRPPRLPRPRPRPADMPRP | -0.00154 |
| RRIRNRPPRLPRPRPRPAFWPRP | 0.0558 |
| RRIRNRPPRLPRPRPRPAGAPRP | 0.665 |
| RRIRNRPPRLPRPRPRPAGEPRP | 0.507 |
| RRIRNRPPRLPRPRPRPAHYPRP | -0.299 |
| RRIRNRPPRLPRPRPRPAKSPRP | 0.163 |
| RRIRNRPPRLPRPRPRPALGPRP | -0.361 |
| RRIRNRPPRLPRPRPRPANPPRP | 0.0813 |
| RRIRNRPPRLPRPRPRPANQPRP | 0.271 |
| RRIRNRPPRLPRPRPRPAPKPRP | 0.377 |
| RRIRNRPPRLPRPRPRPAPSPRP | 0.271 |
| RRIRNRPPRLPRPRPRPAQRPRP | -0.0476 |
| RRIRNRPPRLPRPRPRPAREPRP | 0.191 |
| RRIRNRPPRLPRPRPRPATGPRP | -0.04 |

| Sequence | shrunken log2 fold change |
| --- | --- |
| RRIRNRPPRLPRPRPRPAYTPRP | -0.262 |
| RRIRNRPPRLPRPRPRPAYWPRP | 0.0638 |
| RRIRNRPPRLPRPRPRPCANPRP | 0.0435 |
| RRIRNRPPRLPRPRPRPCDAPRP | -0.195 |
| RRIRNRPPRLPRPRPRPCDDPRP | 0.0873 |
| RRIRNRPPRLPRPRPRPCFRPRP | -0.241 |
| RRIRNRPPRLPRPRPRPCFYPRP | -0.474 |
| RRIRNRPPRLPRPRPRPCGAPRP | 0.144 |
| RRIRNRPPRLPRPRPRPCHRPRP | -0.139 |
| RRIRNRPPRLPRPRPRPCHTPRP | -0.316 |
| RRIRNRPPRLPRPRPRPCIDPRP | 0.027 |
| RRIRNRPPRLPRPRPRPCIHPRP | -0.355 |
| RRIRNRPPRLPRPRPRPCIIPRP | -0.0176 |
| RRIRNRPPRLPRPRPRPCIPPRP | -0.0387 |
| RRIRNRPPRLPRPRPRPCITPRP | -0.049 |
| RRIRNRPPRLPRPRPRPCIYPRP | -0.599 |
| RRIRNRPPRLPRPRPRPCLAPRP | -0.69 |
| RRIRNRPPRLPRPRPRPCLKPRP | -0.315 |
| RRIRNRPPRLPRPRPRPCLSPRP | -0.043 |
| RRIRNRPPRLPRPRPRPCMMPRP | -0.325 |
| RRIRNRPPRLPRPRPRPCPNPRP | -0.344 |
| RRIRNRPPRLPRPRPRPCQQPRP | -0.0105 |
| RRIRNRPPRLPRPRPRPCRCPRP | -0.307 |
| RRIRNRPPRLPRPRPRPCRIPRP | -0.134 |
| RRIRNRPPRLPRPRPRPCRVPRP | -0.0128 |

| Sequence | shrunken log2 fold change |
| --- | --- |
| RRIRNRPPRLPRPRPRPCTYPRP | 0.05 |
| RRIRNRPPRLPRPRPRPCVWPRP | -0.024 |
| RRIRNRPPRLPRPRPRPCWTPRP | -0.0133 |
| RRIRNRPPRLPRPRPRPDAMPRP | -0.0496 |
| RRIRNRPPRLPRPRPRPDAVPRP | 0.0764 |
| RRIRNRPPRLPRPRPRPDEHPRP | -0.415 |
| RRIRNRPPRLPRPRPRPDFWPRP | 0.3 |
| RRIRNRPPRLPRPRPRPDGGPRP | -0.323 |
| RRIRNRPPRLPRPRPRPDGYPRP | 0.171 |
| RRIRNRPPRLPRPRPRPDHIPRP | 0.00647 |
| RRIRNRPPRLPRPRPRPDHYPRP | -0.202 |
| RRIRNRPPRLPRPRPRPDIEPRP | 0.0309 |
| RRIRNRPPRLPRPRPRPDINPRP | -0.482 |
| RRIRNRPPRLPRPRPRPDIYPRP | -0.265 |
| RRIRNRPPRLPRPRPRPDKFPRP | -0.188 |
| RRIRNRPPRLPRPRPRPDKLPRP | -0.168 |
| RRIRNRPPRLPRPRPRPDLLPRP | -0.0183 |
| RRIRNRPPRLPRPRPRPDMSPRP | 0.000831 |
| RRIRNRPPRLPRPRPRPDPYPRP | -0.319 |
| RRIRNRPPRLPRPRPRPDQEPRP | -0.00963 |
| RRIRNRPPRLPRPRPRPDRKPRP | -0.00776 |
| RRIRNRPPRLPRPRPRPDSNPRP | -0.0886 |
| RRIRNRPPRLPRPRPRPDVGPRP | -0.251 |
| RRIRNRPPRLPRPRPRPDVVPRP | -0.0975 |
| RRIRNRPPRLPRPRPRPDWAPRP | -0.0406 |
